Measurements from patent publication US7803904 (Takeda / Millennium, dated 2010).
Blank lines part the entries; values can stand above or below the binder they belong to.

How the values were obtained:
human α4β7 integrin [1] = target: T1, human α4β7 integrin (human, UniProt P13612 34-1032; P26010 20-798); experiment: cell adhesion, FIG. 5 legend
T1 construct: whole, on cells; also called α4β7 on RPMI 8866 cells; α4β7 on HuT 78 cells
Procedure: Clone pcD3huMAd4 (insert from clone 4) or pcD3huMAd20 (insert from clone 20) was transiently transfected into CHO/P cells.
Adhesion of the CHO/P transfectants to RPMI 8866 cells was blocked by preincubation with anti-α4β7 MAb ACT-1, but not by control IgG. […] To further characterize these distinct cDNAs, both clones were completely sequenced.

murine α4β7 integrin [2] = target: T2, murine α4β7 integrin (mouse, UniProt Q00651 41-1039; P26011 20-806); experiment: cell adhesion, L1-2 stable transfectants
T2 construct: whole, on cells; Carried by the murine T cell lymphoma TK1; also called α4β7 on TK1 cells

human α4β1 integrin [3] = target: T3, human α4β1 integrin (human, UniProt P13612 34-1032; P05556 21-798); experiment: functional adhesion assay, CHO/P transfectants, 4° C (FIG. 4B)
T3 construct: whole, on cells; Carried by Jurkat and Ramos cells (α4β1, not α4β7); also called α4β1 on Jurkat cells; α4β1 on Ramos cells
Procedure: (§1) Where DATK 32 was used in a preincubation with a cell line, prior to the start of the assay, the supernatant or buffer present in the wells (containing the transfectants) was aspirated in order to obtain volume of 0.5 ml total for the adhesion assay.
(§2) Assays were fixed as described above. Plates were washed by gentle inversion in a large beaker of phosphate buffered saline (PBS), followed by inversion in a beaker of PBS with 1.5% gluteraldehyde for fixation for a minimum of 1 hour. Adhesion was assessed by counting both lymphocytes and CHO cells in a field at 20× magnification. For each assay, the number of lymphocytes bound per CHO/P cell was averaged as a minimum of four fields with standard error. Results in each case are from one of three experiments performed with similar results.
(§3) Murine MAdCAM-1 specifically binds lymphocytes expressing α4β7 (and not α4β1). […] Binding of these cell lines was compared to that of transiently transfected CHO/P cells expressing murine MAdCAM-1 and human VCAM-1.

human α4β1 integrin [4] = target: T3, human α4β1 integrin; experiment: cell adhesion assay, CHO/P transfectants
human α4β1 integrin [5] = target: T3, human α4β1 integrin; experiment: cell adhesion, FIG. 4B legend
Procedure: as §1, §2, §3

human α4β7 integrin [6] = target: T1, human α4β7 integrin; experiment: cell adhesion assay, CHO/P transfectants
human α4β7 integrin [7] = target: T1, human α4β7 integrin; experiment: cell adhesion, FIG. 4A
Procedure: as §1, §2, §3

murine α4β7 integrin [8] = target: T2, murine α4β7 integrin; experiment: cell adhesion, CHO/P transient transfectants

T3 sequence (P13612 34-1032, chain 1 of 2): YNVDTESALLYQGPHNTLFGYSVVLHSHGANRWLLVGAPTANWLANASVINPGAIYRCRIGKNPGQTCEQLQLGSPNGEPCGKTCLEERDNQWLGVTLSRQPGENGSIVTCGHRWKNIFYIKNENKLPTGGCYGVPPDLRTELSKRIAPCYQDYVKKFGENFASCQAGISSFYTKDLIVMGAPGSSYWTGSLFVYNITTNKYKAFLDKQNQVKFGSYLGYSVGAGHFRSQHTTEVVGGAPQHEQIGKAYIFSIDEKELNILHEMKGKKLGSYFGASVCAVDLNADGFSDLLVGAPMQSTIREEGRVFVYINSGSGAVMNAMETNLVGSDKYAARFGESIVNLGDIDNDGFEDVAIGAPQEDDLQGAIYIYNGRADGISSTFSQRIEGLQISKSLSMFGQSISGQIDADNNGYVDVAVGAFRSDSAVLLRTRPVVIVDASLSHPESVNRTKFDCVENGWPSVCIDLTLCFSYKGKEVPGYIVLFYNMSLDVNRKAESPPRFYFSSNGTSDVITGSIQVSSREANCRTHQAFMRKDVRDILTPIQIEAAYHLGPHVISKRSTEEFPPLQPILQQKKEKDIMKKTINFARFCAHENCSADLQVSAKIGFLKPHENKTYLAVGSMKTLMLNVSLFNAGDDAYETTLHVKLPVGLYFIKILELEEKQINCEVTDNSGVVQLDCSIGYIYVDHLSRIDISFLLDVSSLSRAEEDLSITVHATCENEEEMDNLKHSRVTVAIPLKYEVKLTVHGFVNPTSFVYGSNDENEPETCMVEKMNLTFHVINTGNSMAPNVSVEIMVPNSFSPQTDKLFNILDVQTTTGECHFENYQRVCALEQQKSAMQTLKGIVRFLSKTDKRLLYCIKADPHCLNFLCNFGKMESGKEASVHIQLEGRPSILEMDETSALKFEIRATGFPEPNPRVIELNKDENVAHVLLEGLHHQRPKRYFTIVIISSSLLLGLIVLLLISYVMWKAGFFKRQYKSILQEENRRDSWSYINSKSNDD
T3 sequence (P05556 21-798, chain 2 of 2): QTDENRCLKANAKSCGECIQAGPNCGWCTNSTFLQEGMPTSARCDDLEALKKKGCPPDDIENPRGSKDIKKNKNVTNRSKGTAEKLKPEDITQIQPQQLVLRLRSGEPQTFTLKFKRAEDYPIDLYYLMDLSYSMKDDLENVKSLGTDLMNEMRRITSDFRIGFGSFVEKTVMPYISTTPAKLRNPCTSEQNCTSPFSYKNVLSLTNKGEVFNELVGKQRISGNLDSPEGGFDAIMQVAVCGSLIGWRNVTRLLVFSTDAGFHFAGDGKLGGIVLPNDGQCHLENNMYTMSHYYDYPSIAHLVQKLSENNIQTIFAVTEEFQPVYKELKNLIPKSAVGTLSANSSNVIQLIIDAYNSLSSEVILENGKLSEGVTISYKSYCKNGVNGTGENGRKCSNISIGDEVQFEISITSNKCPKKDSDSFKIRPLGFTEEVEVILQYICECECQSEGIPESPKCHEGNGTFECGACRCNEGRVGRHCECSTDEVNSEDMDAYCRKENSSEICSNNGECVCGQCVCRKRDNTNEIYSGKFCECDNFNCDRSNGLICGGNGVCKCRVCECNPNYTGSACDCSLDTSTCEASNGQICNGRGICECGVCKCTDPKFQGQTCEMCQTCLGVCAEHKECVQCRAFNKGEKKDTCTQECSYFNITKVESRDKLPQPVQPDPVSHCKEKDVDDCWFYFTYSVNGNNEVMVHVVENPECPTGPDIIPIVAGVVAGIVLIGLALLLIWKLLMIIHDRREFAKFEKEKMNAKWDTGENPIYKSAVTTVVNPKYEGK
T1 sequence (P13612 34-1032, chain 1 of 2): as the sequence (P13612 34-1032, chain 1 of 2) above
T1 sequence (P26010 20-798, chain 2 of 2): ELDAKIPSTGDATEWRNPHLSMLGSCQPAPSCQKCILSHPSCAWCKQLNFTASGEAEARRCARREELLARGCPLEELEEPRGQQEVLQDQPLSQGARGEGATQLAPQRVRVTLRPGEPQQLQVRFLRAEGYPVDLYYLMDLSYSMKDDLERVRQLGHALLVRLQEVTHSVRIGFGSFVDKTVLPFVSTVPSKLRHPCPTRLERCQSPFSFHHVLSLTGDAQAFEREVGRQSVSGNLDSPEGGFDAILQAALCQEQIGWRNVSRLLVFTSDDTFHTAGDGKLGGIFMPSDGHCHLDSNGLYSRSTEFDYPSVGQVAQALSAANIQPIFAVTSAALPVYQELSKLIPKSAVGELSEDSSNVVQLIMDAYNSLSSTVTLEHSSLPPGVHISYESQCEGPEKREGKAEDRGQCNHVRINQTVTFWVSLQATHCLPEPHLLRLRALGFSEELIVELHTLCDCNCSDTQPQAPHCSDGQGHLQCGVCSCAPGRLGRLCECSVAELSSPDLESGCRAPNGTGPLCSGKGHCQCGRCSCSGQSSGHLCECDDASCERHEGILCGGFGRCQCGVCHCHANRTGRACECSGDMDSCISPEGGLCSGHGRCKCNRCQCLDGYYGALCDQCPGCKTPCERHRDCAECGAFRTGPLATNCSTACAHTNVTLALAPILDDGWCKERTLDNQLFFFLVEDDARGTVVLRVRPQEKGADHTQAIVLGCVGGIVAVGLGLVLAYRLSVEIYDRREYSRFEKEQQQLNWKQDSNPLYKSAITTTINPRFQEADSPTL
T2 sequence (Q00651 41-1039, chain 1 of 2): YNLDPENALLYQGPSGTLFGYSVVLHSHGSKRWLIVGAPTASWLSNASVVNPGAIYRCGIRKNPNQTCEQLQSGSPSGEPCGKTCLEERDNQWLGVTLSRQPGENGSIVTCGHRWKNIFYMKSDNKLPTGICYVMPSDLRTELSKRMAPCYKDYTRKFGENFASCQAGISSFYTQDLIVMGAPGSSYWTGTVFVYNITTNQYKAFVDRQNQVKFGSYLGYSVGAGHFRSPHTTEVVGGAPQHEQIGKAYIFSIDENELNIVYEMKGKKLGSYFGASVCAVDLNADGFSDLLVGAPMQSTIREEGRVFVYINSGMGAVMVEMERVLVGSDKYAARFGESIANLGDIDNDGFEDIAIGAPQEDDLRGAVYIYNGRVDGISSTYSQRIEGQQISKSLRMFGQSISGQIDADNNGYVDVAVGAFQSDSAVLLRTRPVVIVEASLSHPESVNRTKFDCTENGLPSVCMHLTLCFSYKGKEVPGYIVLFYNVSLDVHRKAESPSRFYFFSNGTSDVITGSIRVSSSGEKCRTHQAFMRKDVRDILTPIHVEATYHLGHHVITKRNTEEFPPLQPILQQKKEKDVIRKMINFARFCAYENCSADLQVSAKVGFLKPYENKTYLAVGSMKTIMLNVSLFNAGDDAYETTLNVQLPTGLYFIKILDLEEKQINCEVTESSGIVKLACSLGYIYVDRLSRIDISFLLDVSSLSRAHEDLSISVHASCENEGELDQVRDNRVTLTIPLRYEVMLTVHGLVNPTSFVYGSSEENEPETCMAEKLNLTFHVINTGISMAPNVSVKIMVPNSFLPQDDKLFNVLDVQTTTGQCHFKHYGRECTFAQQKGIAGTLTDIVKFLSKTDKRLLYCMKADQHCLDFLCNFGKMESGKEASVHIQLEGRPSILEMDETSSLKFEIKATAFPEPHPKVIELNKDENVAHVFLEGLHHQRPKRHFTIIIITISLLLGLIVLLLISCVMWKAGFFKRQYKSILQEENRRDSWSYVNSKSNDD
T2 sequence (P26011 20-806, chain 2 of 2): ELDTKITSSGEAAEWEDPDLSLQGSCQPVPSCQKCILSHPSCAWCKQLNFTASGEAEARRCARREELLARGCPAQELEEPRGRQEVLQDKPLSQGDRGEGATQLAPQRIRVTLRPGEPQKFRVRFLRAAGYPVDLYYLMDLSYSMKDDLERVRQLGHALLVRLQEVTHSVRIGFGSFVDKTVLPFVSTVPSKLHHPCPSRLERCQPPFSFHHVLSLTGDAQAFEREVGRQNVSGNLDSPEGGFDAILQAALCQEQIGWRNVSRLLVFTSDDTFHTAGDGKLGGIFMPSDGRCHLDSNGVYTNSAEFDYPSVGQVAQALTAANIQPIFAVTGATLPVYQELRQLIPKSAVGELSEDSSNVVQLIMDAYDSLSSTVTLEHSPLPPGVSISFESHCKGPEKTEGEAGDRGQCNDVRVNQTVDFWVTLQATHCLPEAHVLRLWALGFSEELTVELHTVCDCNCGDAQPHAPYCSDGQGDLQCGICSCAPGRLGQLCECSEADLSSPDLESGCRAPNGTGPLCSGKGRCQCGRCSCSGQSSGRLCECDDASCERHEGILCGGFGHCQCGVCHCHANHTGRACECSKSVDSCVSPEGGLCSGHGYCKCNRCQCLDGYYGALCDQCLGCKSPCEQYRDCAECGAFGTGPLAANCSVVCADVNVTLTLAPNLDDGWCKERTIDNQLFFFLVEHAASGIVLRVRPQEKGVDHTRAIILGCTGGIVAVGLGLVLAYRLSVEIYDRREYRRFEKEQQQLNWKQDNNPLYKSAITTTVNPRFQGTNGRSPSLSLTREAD

- binding result (human α4β1 integrin [4]): no binding
B2: macaque MAdCAM-1 (cDNA clone 31D) (receptor)
chain: QSLQVKPLQVEPPEPVVAVALGASRQLTCRLDCADRGATVQWRGLDTSLGAVQSDAGRSVLTVRNASLSAAGTRVCVGSCGGRTFQHTVRLLVYAFPDQLTISPAALVPGDPEVACTAHKVTPVDPNALSFSLLLGDQELEGAQALGPEVEEEEEEPQEEEDVLFRVTERWRLPTLATPVLPALYCQATMRLPGLELSHRQAIPVLHGPTSREPPDTTSPEPRAATSPETTPQQGSTHSPRSPGSTRTCRPEISQAGPTQGEVIPTGSSKPTGDQLPAALWTSSAVLGLLLLALPTYHLWKRCRHLAEDGAHPPASLSSQPFPL
notes: Expressed on CHO/P or L1-2 cells; also called pcD3pMAd; pCD3PMad

- binding result (human α4β7 integrin [1]): binds
- binding result (murine α4β7 integrin [8]): binds
B5: human MAdCAM-1 (cDNA clone 20) (receptor)
chain: QSLQVKPLQVEPPEPVVAVALGASRQLTCRLACADRGASVQWRGLDTSLGAVQSDTGRSVLTVRNASLSAAGTRVCVGSCGGRTFQHTVQLLVYAFPDQLTVSPAALVPGDPEVACTAHKVTPVDPNALSFSLLVGGQELEGAQALGPEVQEEEEEPQGDEDVLFRVTERWRLPPLGTPVPPALYCQATMRLPGLELSHRQAIPVLHSPTSPEPPDTTSPESPDTTSPESPDTTSQEPPDTTSPEPPDKTSPEPAPQQGSTHTPRSPGSTRTRRPEISQAGPTQGEVIPTGSSKPAGDQLPAALWTSSAVLGLLLLALPTYHLWKRCRHLAEDDTHPPASLRLLPQVSAWAGLRGTGQVGISPS
notes: Isoform with a shorter mucin domain, expressed on CHO/P cells; also called pcD3huMAd20

Continued, binder first:

B1: human MAdCAM-1 (cDNA clone 4) (receptor)
chain: QSLQVKPLQVEPPEPVVAVALGASRQLTCRLACADRGASVQWRGLDTSLGAVQSDTGRSVLTVRNASLSAAGTRVCVGSCGGRTFQHTVQLLVYAFPDQLTVSPAALVPGDPEVACTAHKVTPVDPNALSFSLLVGGQELEGAQALGPEVQEEEEEPQGDEDVLFRVTERWRLPPLGTPVPPALYCQATMRLPGLELSHRQAIPVLHSPTSPEPPDTTSPEPPNTTSPESPDTTSPESPDTTSQEPPDTTSQEPPDTTSQEPPDTTSPEPPDKTSPEPAPQQGSTHTPRSPGSTRTRRPEISQAGPTQGEVIPTGSSKPAGDQLPAALWTSSAVLGLLLLALPTYHLWKRCRHLAEDDTHPPASLRLLPQVSAWAGLRGTGQVGISPS
notes: also called pcD3huMAd4; pCDhuMAd4
- binding result (human α4β7 integrin [1]): binds
- binding result (murine α4β7 integrin [2]): binds
- binding result (human α4β1 integrin [3]): no binding

B3: seven domain human VCAM-1 (receptor, UniProt P19320 25-739, looked up)
chain: FKIETTPESRYLAQIGDSVSLTCSTTGCESPFFSWRTQIDSPLNGKVTNEGTTSTLTMNPVSFGNEHSYLCTATCESRKLEKGIQVEIYSFPKDPEIHLSGPLEAGKPITVKCSVADVYPFDRLEIDLLKGDHLMKSQEFLEDADRKSLETKSLEVTFTPVIEDIGKVLVCRAKLHIDEMDSVPTVRQAVKELQVYISPKNTVISVNPSTKLQEGGSVTMTCSSEGLPAPEIFWSKKLDNGNLQHLSGNATLTLIAMRMEDSGIYVCEGVNLIGKNRKEVELIVQEKPFTVEISPGPRIAAQIGDSVMLTCSVMGCESPSFSWRTQIDSPLSGKVRSEGTNSTLTLSPVSFENEHSYLCTVTCGHKKLEKGIQVELYSFPRDPEIEMSGGLVNGSSVTVSCKVPSVYPLDRLEIELLKGETILENIEFLEDTDMKSLENKSLEMTFIPTIEDTGKALVCQAKLHIDDMEFEPKQRQSTQTLYVNVAPRDTTVLVSPSSILEEGSSVNMTCLSQGFPAPKILWSRQLPNGELQPLSENATLTLISTKMEDSGVYLCEGINQAGRSRKEVELIIQVTPKDIKLTAFPSESVKEGDTVIISCTCGNVPETWIILKKKAETGDTVLKSIDGAYTIRKAQLKDAGVYECESKNKVGSQLRSLTLDVQGRENNKDYFSPELLVLYFASSLIIPAIGMIIYFARKANMKGSYSLVEAQKSKV
notes: whole, on cells; Transiently expressed on CHO/P cells; also called pCD3VCAM
- binding result (human α4β1 integrin [5]): binds
- binding result (human α4β7 integrin [6]): no binding

B4: murine MAdCAM-1 (receptor, mouse, UniProt Q61826 22-405, looked up)
chain: QSFQVNPPESEVAVAMGTSLQITCSMSCDEGVARVHWRGLDTSLGSVQTLPGSSILSVRGMLSDTGTPVCVGSCGSRSFQHSVKILVYAFPDQLVVSPEFLVPGQDQVVSCTAHNIWPADPNSLSFALLLGEQRLEGAQALEPEQEEEIQEAEGTPLFRMTQRWRLPSLGTPAPPALHCQVTMQLPKLVLTHRKEIPVLQSQTSPKPPNTTSAEPYILTSSSTAEAVSTGLNITTLPSAPPYPKLSPRTLSSEGPCRPKIHQDLEAGWELLCEASCGPGVTVRWTLAPGDLATYHKREAGAQAWLSVLPPGPMVEGWFQCRQDPGGEVTNLYVPGQVTPNSSSTVVLWIGSLVLGLLALVFLAYRLWKCYRPGPRPDTSSCTHL
notes: whole, on cells; Transiently expressed on CHO/P cells; also called pCDMAD-7
- binding result (human α4β7 integrin [7]): binds
- binding result (human α4β1 integrin [3]): no binding
